# Measured values as given in the DeepSol protein solubility set.
# Assay: soluble on expression in E. coli; label from the status in PepcDB or PDB records
row,Sequence,soluble on expression in E. coli
1,MDRVRNLLEQIQGRLDELNKAERKVAEVILLNPQMATRLSIAALAQAAKVSEPTVNRFCRSFSVSGYPELKLQLAQSLASGAAYVSRAVEADDNPEAYTQKIFGSAIASLDSACQQLDPALVSKSVDMLIQARQIHFFGLGASAPVALDAQHKFFRFNLAVTAHADVLMQRMIASVAHTGELFVIISYTGRTRELVEVARIARANGASVLGLTAAGSPLAQASTVSLNIPLPEDTDIYMPMTSRIIQLTVLDVLATGMTLRRGVDFQPHLRKIKESLNDSRYPIEDQG,not soluble
2,MKRDKEVSINKKDPFSVLIMGVDERDGDKGRADTLIYMTVNPKTNTTDMVSIPRDTYTKIIGKGTMDKINHSYAFGGTQMTVDTVENFLDVPVDYFVKVNMESFRDVVDTLGGITVNSTFAFSYDGYSFGKGEITLNGKEALAYTRMRKEDPRGDFGRQDRQRQVIQGIINKGANISSITKFGDMFKVVENNVKTNLTFDNMWDIQSDYKGARKHIKQHELKGTGTKINGIYYYQADESALSDITKELKESLEKLEHHHHHH,soluble
3,MAHHHHHHMDGEAAAPTGGAGPKYIVEHLDELEEWSILEYIHICETVKDQNVIFTKFDRPFGEVSEEHNPTCYKQPISELKDKFEWKKICLLDMKATSTLTCSDREHLDYLLFGGILGNVPSDDRTSILRKCQFVISRNLGDMQMTTNTAVLVCHIILDKHVEFKDIPFVDSPEIPLRNEKETMVLPFRFVSKSFFTGMEGDRNVPVLPRNFTEYLIGLGDQRVGDLDEFLSGVVV,soluble
4,GSASDNAAYWSIATTMRSDNKALGAVSDALGMGAAKVDTASAGMDAAIKVVTDIKAKVVAAKEQGVDKTKVQEEVSQLLDQLKSIGTSASFNGENWLVSSANATKTVVSGFVRDAGGTVSVKTTDYALDANSMLYTEGTPGTIDANSGILNATGATTTVGAKTYTQISVLDMNVGTDDLDNALYSVETALTKMTSAGAKLGSLSARIDLQSGFADKLSDTIEKGVGRLV,not soluble
5,GAMDAAVAPEERHLSKMQQNGYENPTYKFFEQMQN,soluble
6,MRLTTKGRYAVTAMLDLALHAQQGPVSLADISERQGISLSYLEQLFAKLRRGNLVTSVRGPGGGYQLSRHMSGIHVAQVIDAVNESVDATRCQGQGDCHSGDTCLTHHLWCDLSLQIHEFLSGISLADLVSRQEVQEVALRQDERRCSGKTPRLDKIEASAID,not soluble
7,GHVSDRPAGRMPLTVHRNVGRWLSEILHASIRDTGVSSRIEFVRRTLHGWVREEYSETELPNAVYRNLYFPVLDAQPAHAGSGKIETISECDRLKNLVRNVTDTLVENYPQGLESEALLIALDGVKLELARIRKDIEMYGDPRKR,soluble
8,SPNPPKLTKQMNAIIDTVINYKDSSGRQLSEVFIQLPSRKELPEYYELIRKPVDFKKIKERIRNHKYRSLGDLEKDVMLLCHNAQTFNLEGSQIYEDSIVLQSVFKSARQ,soluble
9,MGSDKIHHHHHHMKALMFGWEFPPHILGGLGTASFGLTRGMAMQPDMDITFCIPKPWGDEDQSFLKIVGVNQVPIVWKDVDREYVQQRVSKAGMNADQYYKYRDHIYADFSYRHVTDLGCLEFSGRYPDNLLEEINNYSIVAGVIARTEEYDIIHAHDWLTYPAGIHAKNVSGKPLVIHVHATDYDRSRGNVNPDVYAIEKNGMDNADHIITVSNLTRQTVIEKYHQDPAKVTTVHNAVEPLSPEILAIPDKKGVKDKVITFLGRITMQKGPEYFVEAAAKVLAKAPYARFVMAGSGDMMDQMIRLAAARNISDRFHFTGFMKGKQVYEVLKASDVYVMPSVSEPFGISPLEAMQCGVPSIISKQSGCAEILDYAIKVDYWDIEALADAMYSIITYPAMHEFLKVEGKKEVDNIKWEYAGQKVRRIYDNVIGNK,not soluble
10,MGSDKIHHHHHHMVRKKKEVAQVPSTSKEIKDTLWKSADKLRGSMDASQYKDVALGLVFLKYVSDSFEERQKEIRAELEGKGFDEEYILEDLADVDAYTSENVFWVASNARWDFLKKYSKGMDLEGKHKSIGKLIDEAMQQLMADNESLLGTLPQIYGKDNIDQRRLGELVDLFSSTYFASTKDKKARDLLGEVYEYFLDKFAKAEGKRGGEFYTPQPVVRTLVEILEPTEGRVYDPCCGSGGMFVQAEKFLEVTKRDRSNIAVYGQELNERTWRMAKMNLAIHAISSSGLGERWGDTFARDIHAGTKMDYIMANPPFNIKDWIRNEEDARWKYGVPPAKNANFAWIQHIISKLKDHGEAGVVMANGTMTSQSSGEGEIRKNMVEDDVVSCVIALPAQLFRGTGIPVCVWFFAKDKSAGVGGSVDRRGEVLLIDARQLGHMIDRTERAFSDEDITKIANAFRTWRGRKSAEGEYEDEAGFCKSATIEEIREAGYALTPGRYVGMPEAEEDDEPIDEKIARLTAELTAALDESARLDAVVREQLGRLK,not soluble
11,MSLVQNNESVFFVECDSYKESPSTSPIRLDDLDGNDAVSDQGLAFDGDVGITSQARVRNPRAQIFEDSNTDVVLHLDDLDMVPLNTKFDMQMEMGSPMAMPAETPPPVEPLKTKDLAYSSLAHLPSYFFEQTHFRIDRKCLLEMSKLRRNYLTISKQDALSCPQLHSRVAGGYLKPVKEKLFGIRHFLDLEESNTVNLLQDGNYMTELFNSQINIPTFKEFREDFEWCLKIIRDRSLSRFSEKRLQYLVNKFPVFQHLHSKEEMRQSKKVPHKDFYNCRKIDLNLLLSGCFSQWQLTEFIWTKLRKEPDRVIHQAFNGSHITLSQLFKVNFEETGQFFNGLKIIDDSFLEWYKVIYLAKYHLVNDEMEIHTGSHGKQLRYYLIAKTFLEFDNYINGEYLAELLKTFLIKPQEESKYQLCQLSVDFQFYLHYDNSDVDNWWMVFANWLNHYNIFSNNIRWNIRISRIYPELYHTGKVKNFQEYLNLIFKPLFNAENYLHKSLGPILLKFLSQVSSIDLCIQDTDNYIWKNFTAVSCLPKDWTSGGDNPTISQYMYYVYVNLTKLNHIRQALHQNTFTLRSSCSPTSMNRTSQFSNTLNFTEHTEAILNNFLLACGGFLNAENLWNAPPSLVYLFYLSQIPMVVAPLNSIVDSKPTMLQEQAPTGLVLEPSKPYKKNPFMKFFEMGFKISLSSESILYNNSYTKEPIIEEYSVAASIYRLHSADLCELLRNSVITSGFSSTLKNKWLGVSLASHDYFVENTGFVDKWYDCKPNTSLEHNVPIIRRQYRSSTLAGEWRLIIAEGHHHHHH,not soluble
12,MGSDKIHHHHHHMDPIEFIQKSASSIASTMHKLKLKYNPFSEKPIRGNTKFFVGRVSELREIGEILGSALHGSVANAAIVGTKGIGKSSMLNIIYYATKKQGHWVVEMTASQVTPRQFLIQLLYNILTENIITMSGTIKSDYMEHSSRILDMYRKLNNYGDKVPIHYPRERIERDLEYLINEVKSPDKLCIILIDEADQFAKKSCLSLLQFFHSFLYEEGILTFMAGSPTLMDDLTKISPPIKDRIPKIINMPPLSKDESYDLIRRRLEDAHIDGAEEFEPFTEEAIHKIVEECDGIPRKIIMTCSESISIAIRKGLTKIDEKVVKEAMHSLGISVGHQILNHLTPAQSEIVRAMAELGGSATVTQLAEYLKKSPSTIGTHLSDIYEMGYIYKEREGNNVYYKLSKELRDVLIGEDDELEM,not soluble
13,MVDTISVLNPIHLDLSVDPQDNVRISARSTTSSSASTSSDSELMSPRAEELLRMQAELRATRTALAEKDKKMTQIQVTVDAEVQELTEKLFQEAYKMVNTAEARREKAGKLLTESRLEVEVLQAEVRALKELISAPGMGQNHFKQTTSPEHKSTLSKLFNGSSSSSKKQKDAANVSDKKKASSLPSTSTYTLTPSEDREQKEANAVEEIDPILFSEFEFWREAGHPTTSHPFIDRVTVEEVEPCMLFENSELSEEIMKAIRENRVQLEPLNELKPSVRICALTNASRFCPYRVRTGDEEQEWHYVSLIARNRVSYSTFLGLGTIDNFN,not soluble
14,MKKIAIFAGDGIGPEIVAAARQVLDAVDQAAHLGLRCTEGLVGGAALDASDDPLPAASLQLAMAADAVILGAVGGPRWDAYPPAKRPEQGLLRLRKGLDLYANLRPAQIFPQLLDASPLRPELVRDVDILVVRELTGDIYFGQPRGLEVIDGKRRGFNTMVYDEDEIRRIAHVAFRAAQGRRKQLCSVDKANVLETTRLWREVVTEVARDYPDVRLSHMYVDNAAMQLIRAPAQFDVLLTGNMFGDILSDEASQLTGSIGMLPSASLGEGRAMYEPIHGSAPDIAGQDKANPLATILSVAMMLRHSLNAEPWAQRVEAAVQRVLDQGLRTADIAAPGTPVIGTKAMGAAVVNALNLKD,soluble
15,MGSDKIHHHHHHVAPSIRARSAGRDETEFDFMMTDPLALAKRLIALRARIVATFNAGNWEEVGLLSGQSKIITGHDRLLRSLSWHDEDYEGNVLTVLRRISDRDVRALDVIEEYLNEKFPGEEKTEYVSAKPSERKITFAPNVFQIPDGSVESDLVAVMMPFSPEFKPVYEAMKRACTANSLRSMRVDDMWQDSVIVQDIFSLIFRAQVVVVDFSRKNPNVMYETGIAHTLGKHVVPIAQTIDDVPFDMRHHRTLLYLANGEGLQQLERELAAKLKQFGGGGPPIINLGFSR,not soluble
16,MGSDKIHHHHHHMDIRHLRYFVSIVDNDFNLSRASLNLYVSQPALSMMISDFENKEGVQLFKRAQGKIVGLTYVGENYYRDAKEVIKKYNEMHSNLHKSIEQIKGHISIGIPPLILSVVFSEVMPKLILNNPEINFTIKELGAYLLKSDLLLENIDFAVLLNPERISKNIIESYEIHRSELSLFLSPKHHLSAKENITWRDLHGEKIVIFDQTFMIHHQLVESFERHNVYPNIVLKSSSWDFLLYSVKINESLLTILPLPMYEQYKSTEFICRRMEEAIPWSVTLCRLKKNCYTNVEEYIFDSLLKAFKP,not soluble
17,MAMQLEICANSAASCRQAELGGATRVELCAGIPEGGTTPSAGEMAVARSLIAIPIHVIIRPRAGDFVYSSEEIEAMCYDIRVVRSLGMEGVVFGCLTPEGGYDEEANSRLLKEAQGMQLTFHRAFDVCAAPFEMLEKLIAAGFHRVLTSGCAPTALEGKDMIGALNKQATGRIGIMAGCGIRLGNIETLARHTGITQFHSSLRHDIPSSMRFRRPEVSMGGTVKIDEYSRPETSADMVRQAVDILQGILEHHHHHH,not soluble
18,MEQQFILRLHESIKHVVDLGNSTIDICDDRSVVLTHNNKKYPGIVVRLPCIVESQKTMDSRQHYKVADISTLVVVYPDDSFDFDKEREMYELSGLSPPLKYVKARRFRKKSSKIEYVEEIEKKVNDLLEKDMKARSVEVVAKEEKETSDDLDVLAAEIENKLVDNAEAHKEEVQSRPDEIGEKKEEQPRNEEIERLEKGIEEKRRQMESALNPILQKRFESQLNVLLKELEDVKKGMEME,soluble
19,EVYALEESRDVYLSDLDWLNATHGDDTKSKIVQKNHPFTPGNNNQSTKISLKMEDGSISEFEKGLGTIAGSPSTITYDISGAGVTKFFSYLGIDRSANPINEQYAKVDKIEVVVDGKVIYSTINQFPNGLTYETPAIKVDLNIPENAKRLQLKSYAGEKTWGDEVVYADAKFTAKGDFVN,soluble
20,MSLATWSAERFGFGAALGDHDRARRAAVGEAVERYCGNAVPDALEIACYDDLARAGRPALDPATLALYSDRQYRARGFPFRPFTRQTPVAWVPGRDLYAGGPVLVPASMAYLNYFRGAHADEVATHAMLYAGIATGENREHAERFALEELFERDANTIWWASGAAGWAVADAAELLDRYDIAHGEGTGRTIRLFQVPSQFPVPVLAAFLEEPGRGLIAYGTACRADPREAATKALVEAFAMLELTAELADGDSAHWRAVARGEIPPHTYLPYRADRRYADDIRPDFRDLVDLPAVAQLYLDPRMQGRPLDRLRDDTRTTRLADIPRADGDANGGTAHRRYLDMLATQGLSAVSVDVTTPDVRAAGLTVVRVIVPGLYGNPPAAFPFLGGERLYDVPAQLGLAAGKITEDALYPYPIPHEGHHHHHH,not soluble
